Literature values, collected in PMC4769028.

Target: CusA (Escherichia coli) (UniProt P38054)
Experiment: ITC

Chain of UniProt P38054 (P38054 whole entry): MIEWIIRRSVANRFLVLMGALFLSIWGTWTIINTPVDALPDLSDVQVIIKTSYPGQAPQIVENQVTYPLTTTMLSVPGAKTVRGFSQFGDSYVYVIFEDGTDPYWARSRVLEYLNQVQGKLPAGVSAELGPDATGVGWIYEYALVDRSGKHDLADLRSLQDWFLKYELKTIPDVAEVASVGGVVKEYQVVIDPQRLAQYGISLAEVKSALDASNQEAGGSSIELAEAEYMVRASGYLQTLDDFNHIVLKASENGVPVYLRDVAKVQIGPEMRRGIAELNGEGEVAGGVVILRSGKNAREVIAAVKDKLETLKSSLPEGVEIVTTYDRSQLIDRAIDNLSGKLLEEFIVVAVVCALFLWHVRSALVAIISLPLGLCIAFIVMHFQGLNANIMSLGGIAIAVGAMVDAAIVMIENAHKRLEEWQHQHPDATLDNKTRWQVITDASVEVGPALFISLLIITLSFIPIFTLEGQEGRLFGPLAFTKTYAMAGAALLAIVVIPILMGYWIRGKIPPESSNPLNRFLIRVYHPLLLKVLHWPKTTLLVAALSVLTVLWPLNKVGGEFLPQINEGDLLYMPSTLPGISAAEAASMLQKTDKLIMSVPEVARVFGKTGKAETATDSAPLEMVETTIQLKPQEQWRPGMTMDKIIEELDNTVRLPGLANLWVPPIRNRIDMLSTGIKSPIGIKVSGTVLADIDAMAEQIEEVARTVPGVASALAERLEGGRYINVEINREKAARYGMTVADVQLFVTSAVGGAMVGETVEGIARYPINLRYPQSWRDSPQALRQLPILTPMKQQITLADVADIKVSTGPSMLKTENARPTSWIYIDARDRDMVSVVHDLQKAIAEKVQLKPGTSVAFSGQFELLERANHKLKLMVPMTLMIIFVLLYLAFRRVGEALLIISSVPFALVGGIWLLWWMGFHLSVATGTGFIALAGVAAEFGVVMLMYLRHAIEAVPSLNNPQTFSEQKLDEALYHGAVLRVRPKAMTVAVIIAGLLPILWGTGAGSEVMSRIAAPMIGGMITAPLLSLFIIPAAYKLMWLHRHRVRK

## CusB (from UniProt P77239)
  Kd: 5.1 µM
